In US20230151434A1, “REAWAKENING OF DORMANT TUMOR CELLS BY MODIFIED LIPIDS DERIVED FROM STRESS ACTIVATED NEUTROPHILS” (The Wistar Institute of Anatomy and Biology, priority 2020, published 2023):

B1: S100A8/A9: recombinant S100A8/A9, heterocomplex of two S100 calcium binding proteins (calprotectin) (protein, UniProt P27005 2-89; P31725 2-113, looked up)
Protein S100-A8: PSELEKALSNLIDVYHNYSNIQGNHHALYKNDFKKMVTTECPQFVQNINIENLFRELDINSDNAINFEEFLAMVIKVGVASHKDSHKE
Protein S100-A9: ANKAPSQMERSITTIIDTFHQYSRKEGHPDTLSKKEFRQMVEAQLATFMKKEKRNEALINDIMEDLDTNQDNQLSFEECMMLMAKLIFACHEKLHENNPRGHGHSHGKGCGK

Assays:
KPr^p53A cells = assay: In vitro co-culture of dormant tumor cells with PMN (count of GFP+ cells); assay type: cell-based, mouse
Experimental: (§1) The KPr cell line (16) was maintained in RPMI 1640 medium (Corning) and 10% FBS (Gibco). Treatment of KPr cells with 250 nM 4-hydroxytamoxifen (4-OHT, Sigma-Aldrich) induced p53 expression. p53-induced cells (KPr^p53) were stained with CellTrace dye for 20 min at 37° C. according to the manufacturer's instructions (Life Technologies) and seeded at 8500 cells/cm^2 in culture in a T175 tissue culture-treated flask (Gibco). After 7 days, cells were detached and sorted based on the CellTrace dye intensity as proliferating (KPr^p53P, with lower CellTrace) and arrested cells (KPr^p53A, with higher-intensity CellTrace; see FIG. 1A for representative image). LL2 cells were seeded at 1000 cells/cm2 and treated for 3 days with 2.5 μM cisplatin (Selleckchem). After that, cells were stained with CellTrace and sorted as described above. OVCAR3 cell senescence was induced by treating 5×10^4 cells/cm2 with 0.5 μM cisplatin for 72 hours. After that time, cells were stained with CellTrace and sorted. A549 senescence was induced by 72-hour treatment with 4 μM cisplatin and cells were sorted after staining with CellTrace. Time points for sorting were chosen as the best to observe separation between arrested and proliferating cells. Cells were sorted on Astrios (Beckman Coulter) or Melody (Becton Dickinson) fluorescence-activated cell sorters.
(§2) Arrested tumor cells were plated at 100 cells/cm^2 in a 48-well tissue culture-treated plate (Costar) for coculture experiments. After 24 hours, PMN-MDSC or PMN were added at indicated ratios. Cocultures were maintained for 48 hours in RPMI 1640+10% FBS in the presence of mouse recombinant GM-CSF (10 ng/ml; Rocky Hill) to ensure neutrophil viability. All control conditions were in the presence of media with GM-CSF. All indicated supplements (NE, S100A8/A9, BGJ398, ICI 118-551, IL-2, MPO inhibitor, LPS, lipids, PMA, and thapsigargin 1 μM) were added to culture at the same time as PMN and maintained for 48 hours. After that, media were removed and replaced by fresh media without GM-CSF. After 1 week, GFP^+ cells in wells were counted via an inverted microscope. When lipid extracts were used, lipids were added to dormant cells in culture at 1 to 0.05 or 0.01 nmol as indicated in each experiment.

PMN = PMN viability (proportion of live PMN); assay type: cell-based, mouse
Experimental: FIG. 2A-FIG. 2K show neutrophil-mediated reactivation of dormant cells is regulated by stress-induced S100A8/A9. (FIG. 2A) Fold increase in the number of KPr^p53A cells cultured in the presence of PMN and S100A8/A9 or indicated cytokines relative to KPr^p53A cells cultured with PMN. Three independent experiments with 16 replicates were performed. Mean±SEM of one experiment is shown. (FIG. 2B) Fold increase in the number of KPr^p53A cells cultured in the presence of PMN and LPS relative to KPr^p53A cells cultured with PMN or alone. Means±SEM of three independent experiments with 16 replicates each are shown. (FIG. 2C) Fold increase in the number of KPr^p53A cells cultured in the presence of S100A8/A9 alone, PMN and S100A8/A9, or PMN-MDSC relative to KPr^p53A cultured alone. Means±SEM of 10 independent experiments with 16 replicates each are shown. (FIG. 2D) S100A8/A9 protein produced by PMN after treatment with indicated hormones or LPS was measured by ELISA. PMN-MDSC were isolated from spleens of Lewis lung carcinoma tumor-bearing mice. Means±SEM and results of each independent experiment with three replicates are shown. (FIG. 2E) S100A8/A9 protein secreted in vitro from PMN and PMN treated with NE with or without ICI-118; […] as measured by ELISA. Means±SEM and results of independent experiment with three replicates are shown. (FIG. 2F) Flow cytometry staining of ADRB2 receptor (dark gray) on PMN isolated from mouse spleen. Isotype control, light gray. Representative histogram of three experiments is shown. (FIG. 2G) Fold increase in the number of KPr^p53A cells cultured with PMN alone, NE alone, PMN and NE together, and PMN and NE plus ICI-118; 553 relative to KPr^p53A cells cultured alone (Ctrl). Ten independent experiments with 16 replicates for each experiment were performed. Means±SEM in a representative experiment are shown. (FIG. 2H) Number of KPr^p53A cells cultured in the presence of PMN from S100a9KO mice alone or together with NE relative to KPr^p53A cells cultured alone (ctrl). Means±SEM are reported for 16 replicates. (FIG. 2I) Percentage of live PMN after overnight incubation with NE, S100A8/A9, or LPS. Each dot represents the average of three experimental replicates of one single experiment. Means±SEM are shown for each group. (FIG. 2J) Fold increase in number of LL2^CisA cells cultured with PMN alone or together with S100A8/A9 or NE relative to LL2^CisA cultured alone (Ctrl). Means±SEM of three independent experiments with 16 replicates each are shown. […] In all panels, P values were calculated using ANOVA test with correction for multiple comparisons.
FIG. 11A-FIG. 11G show the mechanism of dormant tumor cell reactivation. […] P values were calculated by ANOVA test with correction for multiple comparisons. […]

[1] = test system: LL2^cisA and AT-3^DoxA cells; assay: In vitro co-culture of chemotherapy-arrested mouse tumor cells with PMN; assay type: cell-based
Experimental: as §1, §2

[2] = test system: A549^cisA and OVCAR3^cisA cells; assay: In vitro co-culture of chemotherapy-arrested human tumor cells with human PMN; assay type: cell-based; conditions: PMN and NE plus ICI-118,551
Experimental: as §1, §2

Row | Molecule | proliferation of KPr^p53A cells induced by PMN and NE, effect of β-blocker (KPr^p53A cells; PMN and NE plus ICI-118,551) | cytotoxic effect on PMN (PMN; proportion of live PMN after exposure) | NE- and PMN-induced reactivation of dormant mouse tumor cells, effect of β-blocker ([1]; PMN and NE plus ICI-118,551) | NE- and PMN-induced reactivation of dormant human tumor cells, effect of β-blocker [2] | reactivation/proliferation of KPr^p53A cells, supplement alone (KPr^p53A cells; absence of PMN) | reactivation of KPr^p53A cells cultured with MON plus supplement (KPr^p53A cells; monocytes instead of PMN) | reactivation/proliferation of KPr^p53A cells cultured with PMN plus supplement (KPr^p53A cells; supplement added with PMN, LPS 0.5 to 2 μg/ml) | PMN viability (PMN) | proliferation of arrested mouse tumor cells cultured with mouse PMN plus supplement ([1]; LL2^cisA, AT-3^DoxA)
1 | Cc1ccc(OCC(O)C(C)NC(C)C)c2c1CCC2 (stereo not drawn) [ICI-118,551] | this effect was abrogated | no cytotoxic effect on PMN | this effect was abrogated | this effect was abrogated |  |  |  |  | 
2 | B1 |  |  |  |  | no effect | failed to reactivate KPr^p53A cells | enabled PMN to induce proliferation of KPr^p53A cells | did not affect PMN viability | activated proliferation
